T1: cell surface CD22 on Ramos (CD22+) cells (human, UniProt P20273 20-847)
T1 construct: whole, on cells; also called CD22 on WSU-DLCL2, MHH-PREB-1 and Raji cells
T1 sequence (looked up): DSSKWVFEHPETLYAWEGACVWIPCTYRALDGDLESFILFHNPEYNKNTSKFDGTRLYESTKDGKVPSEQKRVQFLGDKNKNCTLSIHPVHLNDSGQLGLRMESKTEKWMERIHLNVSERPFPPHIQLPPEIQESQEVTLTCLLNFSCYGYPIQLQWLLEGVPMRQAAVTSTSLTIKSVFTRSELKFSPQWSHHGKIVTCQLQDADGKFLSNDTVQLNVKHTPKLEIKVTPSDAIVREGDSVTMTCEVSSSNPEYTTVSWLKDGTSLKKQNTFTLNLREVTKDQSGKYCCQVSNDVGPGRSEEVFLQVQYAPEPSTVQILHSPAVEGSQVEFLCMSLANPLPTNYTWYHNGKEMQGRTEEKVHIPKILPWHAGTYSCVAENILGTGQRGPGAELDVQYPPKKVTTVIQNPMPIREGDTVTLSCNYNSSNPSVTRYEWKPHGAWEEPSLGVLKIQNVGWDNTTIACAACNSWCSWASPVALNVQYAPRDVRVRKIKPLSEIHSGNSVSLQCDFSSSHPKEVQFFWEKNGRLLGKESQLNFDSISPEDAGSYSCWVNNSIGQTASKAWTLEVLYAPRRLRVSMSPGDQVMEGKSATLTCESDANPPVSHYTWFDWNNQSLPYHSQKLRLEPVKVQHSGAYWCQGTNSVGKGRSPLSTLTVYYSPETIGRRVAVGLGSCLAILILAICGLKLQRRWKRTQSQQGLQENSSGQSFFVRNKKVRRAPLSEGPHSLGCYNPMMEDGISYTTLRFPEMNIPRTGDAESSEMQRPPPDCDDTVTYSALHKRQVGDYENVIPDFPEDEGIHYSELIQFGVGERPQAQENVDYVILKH

T2: CD22 Protein (His Tag), Sino Biological Cat. No. 11958-H08H (UniProt P20273 20-687)
T2 construct: soluble analyte, 50 nM in BLI; also called Sino Biological antigen
T2 sequence (looked up): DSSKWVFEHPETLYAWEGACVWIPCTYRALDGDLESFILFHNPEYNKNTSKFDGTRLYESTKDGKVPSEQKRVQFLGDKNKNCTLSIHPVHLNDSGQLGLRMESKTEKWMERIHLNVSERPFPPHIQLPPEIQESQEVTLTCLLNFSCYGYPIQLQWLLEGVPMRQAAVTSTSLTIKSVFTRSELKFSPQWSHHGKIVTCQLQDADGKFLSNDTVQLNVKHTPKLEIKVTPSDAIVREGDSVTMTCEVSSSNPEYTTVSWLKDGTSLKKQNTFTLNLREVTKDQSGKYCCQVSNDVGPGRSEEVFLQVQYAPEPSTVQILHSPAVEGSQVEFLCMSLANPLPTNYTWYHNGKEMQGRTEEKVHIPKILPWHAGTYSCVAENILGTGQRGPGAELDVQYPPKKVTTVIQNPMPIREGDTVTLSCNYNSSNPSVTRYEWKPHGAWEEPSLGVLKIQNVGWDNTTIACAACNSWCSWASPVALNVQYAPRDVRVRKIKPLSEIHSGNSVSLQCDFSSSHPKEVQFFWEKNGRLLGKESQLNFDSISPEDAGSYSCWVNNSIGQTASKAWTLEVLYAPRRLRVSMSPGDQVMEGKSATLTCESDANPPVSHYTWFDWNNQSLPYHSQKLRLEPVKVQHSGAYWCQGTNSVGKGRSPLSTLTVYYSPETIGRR

T3: CD22 (Acro Biosystems, Cat #CD2-H52H8) (UniProt P20273 20-687)
T3 construct: soluble analyte, 50 nM in BLI; also called Acro Biosystems antigen
T3 sequence (looked up): T2 sequence (looked up)

B1: pinatuzumab (antibody, V domains shown)
VH: EVQLVESGGGLVQPGGSLRLSCAASGYEFSRSWMNWVRQAPGKGLEWVGRIYPGDGDTNYSGKFKGRFTISADTSKNTAYLQMNSLRAEDTAVYYCARDGSSWDWYFDVWGQGTLVTVSS
VL: DIQMTQSPSSLSASVGDRVTITCRSSQSIVHSVGNTFLEWYQQKPGKAPKLLIYKVSNRFSGVPSRFSGSGSGTDFTLTISSLQPEDFATYYCFQGSQFPYTFGQGTKVEIK
notes: IgG from Expi293; also called MYT1293; PINATUZUMAB starting ABPC
B2: MYT1331 (antibody, V domains shown)
VH: B1 VH with F107H
VL: B1 VL
notes: pinatuzumab VH F107H; tie by order
B3: MYT4405 (antibody, V domains shown)
VH: EVQLVQSGAEVKKPGASVKVSCKASGYRFTHYWIHWVRQAPGQGLEWIGGINPGNNYATYRRKFQGRVTMTADTSTSTVYMELSSLRSEDTAVYYCTREGYGHYGAWFAYWGQGTLVTVSS
VL: DVQVTQSPSSLSASVGDRVTITCRSSQSLANSYGNTFLSWYLHKPGKAPQLLIYGISNRFSGVPDRFSGSGSGTDFTLTISSLQPEDFATYYCLQGTHQPYTFGQGTKVEIK
notes: inotuzumab VH N31H+N103H; tie by order
B4: inotuzumab (antibody, V domains shown)
VH: B3 VH with H31N, H103N
VL: B3 VL
notes: IgG from Expi293, captured by anti-human Fc; entries headed heavy/light chain hold only the variable domains; also called MYT0518; INOTUZUMAB starting ABPC
B5: MYT4424 (antibody, V domains shown)
VH: B3 VH with T59H
VL: B3 VL
notes: inotuzumab VH N31H+T59H+N103H; tie by order
B6: MYT4624 (antibody, V domains shown)
VH: QVQLVQSGSELKKPGASVKVSCKASGYTFTSYHMNWVRQAPGQGLEWMGWINTNTGNPTYAQGFTGRFVFSLDTSVSTAYLQISSLKAEDTAVYYCARLFYYYFGMDVWGQGTTVTVSS
VL: QSALTQPASVSGSPGQSITISCTGTSSDVGSYNLVSWYQLHPGKAPKLMIYEVSKRPSGVSNRFSGSRSGNTASLTISGLQAEDEADYYCCSYANSSTLVFGGGTKLTVL
notes: 12C5 VH A33H; tie by order
B7: MYT4626 (antibody, V domains shown)
VH: B6 VH with H33A, N35H
VL: B6 VL
notes: 12C5 VH N35H; tie by order
B8: MYT4649 (antibody, V domains shown)
VH: B6 VH with H33A, F104H
VL: B6 VL
notes: 12C5 VH F104H; tie by order
B9: MYT4650 (antibody, V domains shown)
VH: B6 VH with H33A, G105H
VL: B6 VL
notes: 12C5 VH G105H; tie by order
B10: MYT4651 (antibody, V domains shown)
VH: B6 VH with H33A, M106H
VL: B6 VL
notes: 12C5 VH M106H; tie by order
B11: MYT4715 (antibody, V domains shown)
VH: QVQLQQWGAGLLKPSETLSLTCAVYGRSFSSYYWSWIRQPPGKGLEWIGDIQHSGSTNYNPSLKSRVTISVDTSKNQFSLKLSSVTAADTAVYYCHGTFYDILTGYYPLGYWGPGTLVTVSS
VL: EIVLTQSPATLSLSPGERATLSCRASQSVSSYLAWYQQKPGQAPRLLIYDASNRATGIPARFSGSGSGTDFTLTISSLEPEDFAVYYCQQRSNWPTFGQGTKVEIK
notes: 19A3 VH A96H; tie by order
B12: MYT4723 (antibody, V domains shown)
VH: B11 VH with H96A, T104H
VL: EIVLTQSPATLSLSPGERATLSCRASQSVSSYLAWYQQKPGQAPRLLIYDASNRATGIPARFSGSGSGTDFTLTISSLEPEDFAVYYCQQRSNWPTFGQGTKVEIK
notes: 19A3 VH T104H; tie by order
B13: MYT4718 (antibody, V domains shown)
VH: B11 VH with H96A, F99H
VL: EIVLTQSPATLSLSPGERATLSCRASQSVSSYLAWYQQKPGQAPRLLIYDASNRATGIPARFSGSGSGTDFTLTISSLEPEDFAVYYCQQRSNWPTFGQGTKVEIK
notes: 19A3 VH F99H; tie by order
B14: MYT4720 (antibody, V domains shown)
VH: B11 VH with H96A, D101H
VL: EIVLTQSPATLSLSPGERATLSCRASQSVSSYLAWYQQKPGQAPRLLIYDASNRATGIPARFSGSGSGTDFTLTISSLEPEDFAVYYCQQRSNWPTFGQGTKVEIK
notes: 19A3 VH D101H; tie by order
B15: MYT1529 (antibody, V domains shown)
VH: QVQLVQSGAEVKKPGSSVKVSCKASGYTFTSYWLHWVRQAPGQGLEWIGYINPRNDYTEYNQNFKDKATITADESTNTAYMELSSLRSEDTAFYFCARRDITHFYWGQGTTVTVSS
VL: DIQLTQSPSSLSASVGDRVTMSCKSSQSVLYSANHKNYLAWYQQKPGKAPKLLIYWASTRESGVPSRFSGSGSGTDFTFTISSLQPEDIATYYCHQYLSSWTFGGGTKVQIK
notes: ADCT-602 VH T103H; tie by order
B16: MYT0520 (antibody, V domains shown)
VH: B3 VH with Y27H, H31N, H103N
VL: B3 VL
notes: inotuzumab VH Y27H; tie by order
B17: MYT0550 (antibody, V domains shown)
VH: B3 VH with H31N
VL: B3 VL
notes: inotuzumab VH N103H; tie by order
B18: MYT0544 (antibody, V domains shown)
VH: B3 VH with H31N, T97H, H103N
VL: B3 VL
notes: inotuzumab VH T97H; tie by order
B19: MYT0526 (antibody, V domains shown)
VH: B3 VH with H31N, W33H, H103N
VL: B3 VL
notes: inotuzumab VH W33H; tie by order
B20: MYT0536 (antibody, V domains shown)
VH: B3 VH with H31N, Y57H, H103N
VL: B3 VL
notes: inotuzumab VH Y57H; tie by order

Positions count from the first letter of the chain named. Numbers in names are those of the source.

The record followed here is patent US20220288219A1 (MYTHIC THERAPEUTICS, published 2022).

The term IC50 denotes the concentration needed to halve the response being measured. High values mean weaker potency, low ones greater potency.

For one experiment, the target named is T1, cell surface CD22 on Ramos (CD22+) cells. In words: flow cytometry, antibody titration on Ramos (CD22+) cells, AF488 anti-human IgG. As to the method:
100,000 cells per well were resuspended in 900 μL FC buffer in a 96 well deep well plate. Pinatuzumab, Inotuzumab, and pH engineered antibody variants were serially diluted at a 1:3 dilution. 100 μL of diluted antibody was added to each well with final concentration ranging from ˜100 nM to 0.024 pM and incubated for 2 hours at 4° C. Post incubation, the cells were spun at 2000 rpm for 2 min and supernatant was discarded. Cells were washed twice with 500 μL of ice-cold FC buffer and resuspended with 100 μL of FC buffer. The cells were then transferred from the deep well plate to 96 well round bottom plate, spun at 2000 rpm for 2 min and incubated with 100 μL of 10 μg/mL Alexa Fluor 488 conjugated goat anti-human IgG secondary antibody (ThermoFisher Scientific, A11013) for 30 min. Post incubation, cells were washed with FC buffer and resuspended in 100 μL of FC buffer to read on a BD Accuri C6 flow cytometer. Binding affinity was measured as a dissociation constant KD by GraphPad Prism assuming Michaelis-Menten binding kinetics. MYT1331, MYT4405 and MYT4424 show high affinity binding to cell surface CD22 on Ramos cells in the pM-nM range confirming that variants created through pH engineering can retain functionally appropriate affinities as compared to their corresponding starting ABPCs (e.g., inotuzumab or pinatuzumab).
On the technique in general: In flow cytometry, cells or beads pass a laser one at a time.
As to B1, the IC50 was found to be 0.362 nM.

In the case of B2, the midpoint of inhibition, the IC50, lay at 0.395 nM.

The molecule B3 registered an IC50 of 0.24 nM.

For B4, the IC50 amounted to 0.075 nM.

As for B5, the IC50 turned out to be 0.115 nM.

For another experiment, the target named is T2, CD22 Protein (His Tag), Sino Biological …. The experiment can be described thus: BLI, IgG on anti-human Fc sensor.
Regarding B6, the binding result is on record as “no binding (tested: 50 nM)”.

Take B7: the binding result is “no binding (tested: 50 nM)”.

On to B8, for which the binding result is recorded as “no binding (tested: 50 nM)”.

Consider B9, for which the binding result was “no binding (tested: 50 nM)”.

Take B10: the binding result was “no binding (tested: 50 nM)”.

Consider B11, for which the binding result is “no binding (tested: 50 nM)”.

As for B12, the binding result is given as “no binding (tested: 50 nM)”.

Take B13: the binding result is on record as “no binding (tested: 50 nM)”.

With B14, the binding result is “no binding (tested: 50 nM)”.

Turning to B15, the binding result is “no binding (tested: 50 nM)”.

A further experiment concerns the target T3, CD22 (Acro Biosystems, Cat #CD2-H52H8). The experiment can be described thus: BLI, IgG on anti-human Fc sensor, 50 nM CD22. (In general: Biolayer interferometry detects binding as a change in optical thickness at a sensor tip.)
Turning to B16, the binding result is “binds”.

B17: the binding result is reported as “binds”.

In the case of B18, the binding result is “binds”.

Turning to B19, the binding result was “binds”.

As for B20, the binding result is “binds”.

The target of the next experiment is T2, CD22 Protein (His Tag), Sino Biological …. In words: BLI, IgG on anti-human Fc sensor, 50 nM CD22.
Regarding B16, the binding result was “binds”.

Consider B17, for which the binding result was “binds”.

Take B18: the binding result is “binds”.

As to B19, the binding result is “binds”.

For the molecule B20, the binding result is listed as “binds”.
